Test results reported in PMC2119998.
pKd: −log10 of the molar value.

Experiments:
Experiment in all cases: radioligand binding
laminin = biological target: laminin
[1] = biological target: Ng-CAM and N-CAM (physiological salt)
[2] = biological target: Ng-CAM (chicken) (chicken) (UniProt Q03696)
Chain of Ng-CAM (chicken) (chicken) (Q03696 21-1266): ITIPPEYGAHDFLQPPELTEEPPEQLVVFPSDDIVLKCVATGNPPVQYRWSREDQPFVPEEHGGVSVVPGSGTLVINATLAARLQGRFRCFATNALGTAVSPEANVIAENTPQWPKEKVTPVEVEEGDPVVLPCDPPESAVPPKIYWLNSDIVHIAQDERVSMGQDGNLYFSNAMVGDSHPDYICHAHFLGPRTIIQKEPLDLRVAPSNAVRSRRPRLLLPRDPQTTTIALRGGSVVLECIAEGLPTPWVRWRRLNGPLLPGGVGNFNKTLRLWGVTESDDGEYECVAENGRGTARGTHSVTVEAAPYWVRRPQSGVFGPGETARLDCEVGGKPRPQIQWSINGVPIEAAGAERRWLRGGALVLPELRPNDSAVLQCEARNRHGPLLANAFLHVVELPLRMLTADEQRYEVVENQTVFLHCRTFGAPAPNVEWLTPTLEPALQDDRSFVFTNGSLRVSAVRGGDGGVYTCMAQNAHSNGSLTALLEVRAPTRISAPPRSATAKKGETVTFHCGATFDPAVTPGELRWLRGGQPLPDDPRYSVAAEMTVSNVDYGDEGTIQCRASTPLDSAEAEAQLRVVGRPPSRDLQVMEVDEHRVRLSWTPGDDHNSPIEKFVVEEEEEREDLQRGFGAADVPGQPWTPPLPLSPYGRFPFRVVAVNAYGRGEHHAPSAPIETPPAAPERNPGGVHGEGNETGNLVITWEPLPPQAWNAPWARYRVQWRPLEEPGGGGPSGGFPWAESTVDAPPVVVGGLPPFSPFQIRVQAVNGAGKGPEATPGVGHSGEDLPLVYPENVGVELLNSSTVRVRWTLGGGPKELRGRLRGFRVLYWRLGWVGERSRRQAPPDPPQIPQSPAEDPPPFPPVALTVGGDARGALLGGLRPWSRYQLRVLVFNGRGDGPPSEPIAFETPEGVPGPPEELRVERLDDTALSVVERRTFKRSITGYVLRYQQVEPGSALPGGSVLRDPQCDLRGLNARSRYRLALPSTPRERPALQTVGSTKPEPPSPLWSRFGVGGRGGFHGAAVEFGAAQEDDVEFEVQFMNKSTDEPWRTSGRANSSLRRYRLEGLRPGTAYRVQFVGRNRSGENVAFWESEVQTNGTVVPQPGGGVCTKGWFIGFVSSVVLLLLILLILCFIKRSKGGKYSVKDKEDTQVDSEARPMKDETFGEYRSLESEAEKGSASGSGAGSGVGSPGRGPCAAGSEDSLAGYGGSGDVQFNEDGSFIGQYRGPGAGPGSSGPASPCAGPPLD

Chain of neurocan (P55067 23-1257): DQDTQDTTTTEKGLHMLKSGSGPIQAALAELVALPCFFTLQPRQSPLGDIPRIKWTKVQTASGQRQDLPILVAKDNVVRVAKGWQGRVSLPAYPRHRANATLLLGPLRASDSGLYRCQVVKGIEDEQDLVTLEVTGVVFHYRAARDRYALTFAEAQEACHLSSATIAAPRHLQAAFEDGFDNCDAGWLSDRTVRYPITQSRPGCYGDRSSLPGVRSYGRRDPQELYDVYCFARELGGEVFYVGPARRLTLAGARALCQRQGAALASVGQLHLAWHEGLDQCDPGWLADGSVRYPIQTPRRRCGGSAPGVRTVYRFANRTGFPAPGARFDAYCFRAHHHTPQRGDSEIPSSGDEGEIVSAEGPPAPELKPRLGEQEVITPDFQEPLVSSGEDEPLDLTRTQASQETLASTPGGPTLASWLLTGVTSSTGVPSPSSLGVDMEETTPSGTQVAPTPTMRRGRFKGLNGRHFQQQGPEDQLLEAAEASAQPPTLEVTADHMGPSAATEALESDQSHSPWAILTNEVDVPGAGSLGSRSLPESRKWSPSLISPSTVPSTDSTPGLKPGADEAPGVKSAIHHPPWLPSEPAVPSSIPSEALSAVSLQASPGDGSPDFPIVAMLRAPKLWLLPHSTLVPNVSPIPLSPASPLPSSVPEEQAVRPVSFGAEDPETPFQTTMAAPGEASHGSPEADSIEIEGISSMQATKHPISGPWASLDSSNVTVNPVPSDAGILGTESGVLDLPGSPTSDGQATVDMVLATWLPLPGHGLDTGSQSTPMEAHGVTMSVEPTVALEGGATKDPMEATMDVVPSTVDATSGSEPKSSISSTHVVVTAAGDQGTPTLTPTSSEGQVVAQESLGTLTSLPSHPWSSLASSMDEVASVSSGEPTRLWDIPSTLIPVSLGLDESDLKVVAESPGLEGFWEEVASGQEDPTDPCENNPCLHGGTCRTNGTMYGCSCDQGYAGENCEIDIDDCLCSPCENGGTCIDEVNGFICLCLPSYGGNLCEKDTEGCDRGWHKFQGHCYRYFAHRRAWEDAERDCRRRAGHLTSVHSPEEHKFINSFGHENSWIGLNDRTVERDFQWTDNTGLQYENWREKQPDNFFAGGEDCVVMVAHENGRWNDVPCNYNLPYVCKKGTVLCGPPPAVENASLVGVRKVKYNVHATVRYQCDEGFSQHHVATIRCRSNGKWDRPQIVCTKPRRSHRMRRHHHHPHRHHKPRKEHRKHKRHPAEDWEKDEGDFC

Substance | percent of total counts bound (laminin) [%] | percent decrease of binding in isotonic against hypotonic buffer [1] [%] | pKd [2] | t1/2 of dissociation in excess buffer [2] [h]
neurocan (from UniProt P55067 23-1257) (natural protein) | 9 | 35 to 60 |  | 
neurocan-C (domain or fragment) |  |  | 8.28 | 4
